According to article PMC10066039, “Bile salt hydrolases shape the bile acid landscape and restrict Clostridioides difficile growth in the murine gut” (Nature Microbiology, 2023):

Key:
Experiment in all cases: crystal structure; crystals grown at 20 °C by sitting drop vapour diffusion (LgasBSHa with taurine and CDCA: hanging drop); data at 100 K; molecular replacement with PDB 2HEZ; homo-tetramer in the crystal structure
LaciBSHa = target: LaciBSHa
[1] = target: LgasBSHb (Lactobacillus gasseri)
LingBSH = target: LingBSH
[2] = target: LjohBSHc (johnsonii (cluster johnsonii_1, Lactobacillaceae))
LreuBSH = target: LreuBSH
[3] = target: the molecule itself

LaciBSHa (from UniProt A0A805Z5R7 1-316) (enzyme)
stoichiometry N (LaciBSHa): 4

LgasBSHb (from UniProt A0A805Z5R7 1-316) (enzyme)
stoichiometry N [1]: 4

LingBSH (from UniProt A0A805Z5R7 1-316) (enzyme)
stoichiometry N (LingBSH): 4

LjohBSHc (from UniProt A0A805Z5R7 1-316) (enzyme)
stoichiometry N [2]: 4

LreuBSH (from UniProt A0A805Z5R7 1-316) (enzyme)
stoichiometry N (LreuBSH): 4

B1: LgasBSHa (enzyme, Lactobacillus gasseri, UniProt A0A805Z5R7 1-316, looked up)
chain: MCTGLRFTDDQGNLYFGRNLDVGQDYGEGVIITPRNYPLPYKFLDNTTTKKAVIGMGIVVDGYPSYFDCFNEDGLGIAGLNFPHFAKFSDGPIDGKINLASYEIMLWVTQNFTKVSDVKEALKNVNLVNEAINSSFAVAPLHWIISDKDEAIIVEVSKQYGMKVFDDKLGVLTNSPDFNWHLTNLGNYTGLDPHDATAQSWNGQKVAPWGVGTGSLGLPGDSIPADRFVKAAYLNVNYPTVKGEKANVAKFFNILKSVAMIKGSVVNKLGSDEYTVYTACYSAATKTYYCNFENDFELKTYKLDDETMNADKLITY
notes: bile salt hydrolase LgasBSHa (cluster gasseri_1), amplified from genomic DNA; selectivity loop GVG with V211 in its centre; catalytic cysteine at position 2; Crystallised with taurine and with taurine plus CDCA; also called taurine-preferring BSH; bile salt hydrolase; source: E. coli BL21-G, purified (HisTrap HP, Superdex 200)
stoichiometry N [3]: 4
